The source of these data is US20240209062A1 (INVETX, published 2024).

Sequences and labels used below:
B1: IgG with wild-type feline IgG1a Fc (antibody)
heavy: DVQLVESGGDLVKPGGSLRLTCVASGLSLTSDSMSWVRQAPGKGLQWVSTLWSNRGTYYTDSVKGRFTISKDNAENTLYLQMNNLKTEDTATYYCASIYYYEADYLHWYFDFWGQGALVTVSSASTTAPSVFPLAPSCGTTSGATVALACLVLGYFPEPVTVSWNSGALTSGVHTFPAVLQASGLYSLSSMVTVPSSRWLSDTFTCNVAHPPSNTKVDKTVRKTDHPPGPKPCDCPKCPPPEAAGGPSIFIFPPKPKDTLSISRTPEVTCLVVDLGPDDSDVQITWFVDNTQVYTAKTSPREEQFNSTYRVVSVLPILHQDWLKGKEFKCKVNSKSLPSPIERTISKAKGQPHEPQVYVLPPAQEELSRNKVSVTCLIKSFHPPDIAVEWEITGQPEPENNYRTTPPQLDSDGTYFVYSKLSVDRSHWQRGNTYTCSVSHEALHSHHTQKSLTQSPG
light: EIQMTQSPTSLSASVGDRVTITCRASEGIANNLSWYQQTPGKAPKLLIYATSNLHSGVPSRFSGSGSGTDFTLTISSLQPEDFATYYCQQGFKWPLTFGGGTKLEITRSDAQPSVFLFQPSLDELHTGSASIVCILNDFYPKEVNVKWKVDGVVQNKGIQESTTEQNSKDSTYSLSSTLTMSSTEYQSHEKFSCEVTHKSLASTLVKSFNRSECQRE
notes: Constant domain carries the MALA mutations (M234A, L244A as printed); variable domains from WO 2023/97275; also called Wild-type Fc; wild type feline Fc
B2: IgG with feline IgG1a Fc variant S252M, I377Y (antibody)
heavy: DVQLVESGGDLVKPGGSLRLTCVASGLSLTSDSMSWVRQAPGKGLQWVSTLWSNRGTYYTDSVKGRFTISKDNAENTLYLQMNNLKTEDTATYYCASIYYYEADYLHWYFDFWGQGALVTVSSASTTAPSVFPLAPSCGTTSGATVALACLVLGYFPEPVTVSWNSGALTSGVHTFPAVLQASGLYSLSSMVTVPSSRWLSDTFTCNVAHPPSNTKVDKTVRKTDHPPGPKPCDCPKCPPPEAAGGPSIFIFPPKPKDTLMISRTPEVTCLVVDLGPDDSDVQITWFVDNTQVYTAKTSPREEQFNSTYRVVSVLPILHQDWLKGKEFKCKVNSKSLPSPIERTISKAKGQPHEPQVYVLPPAQEELSRNKVSVTCLIKSFHPPDYAVEWEITGQPEPENNYRTTPPQLDSDGTYFVYSKLSVDRSHWQRGNTYTCSVSHEALHSHHTQKSLTQSPG
light: EIQMTQSPTSLSASVGDRVTITCRASEGIANNLSWYQQTPGKAPKLLIYATSNLHSGVPSRFSGSGSGTDFTLTISSLQPEDFATYYCQQGFKWPLTFGGGTKLEITRSDAQPSVFLFQPSLDELHTGSASIVCILNDFYPKEVNVKWKVDGVVQNKGIQESTTEQNSKDSTYSLSSTLTMSSTEYQSHEKFSCEVTHKSLASTLVKSFNRSECQRE
notes: Printed '1377Y' read as I377Y; IgG1a constant domain with MALA mutations (M234A, L244A as printed); variable domains from WO 2023/97275; also called S252M, 1377Y
B3: IgG with feline IgG1a Fc variant S252M, L309V (antibody)
heavy: DVQLVESGGDLVKPGGSLRLTCVASGLSLTSDSMSWVRQAPGKGLQWVSTLWSNRGTYYTDSVKGRFTISKDNAENTLYLQMNNLKTEDTATYYCASIYYYEADYLHWYFDFWGQGALVTVSSASTTAPSVFPLAPSCGTTSGATVALACLVLGYFPEPVTVSWNSGALTSGVHTFPAVLQASGLYSLSSMVTVPSSRWLSDTFTCNVAHPPSNTKVDKTVRKTDHPPGPKPCDCPKCPPPEAAGGPSIFIFPPKPKDTLMISRTPEVTCLVVDLGPDDSDVQITWFVDNTQVYTAKTSPREEQFNSTYRVVSVLPIVHQDWLKGKEFKCKVNSKSLPSPIERTISKAKGQPHEPQVYVLPPAQEELSRNKVSVTCLIKSFHPPDIAVEWEITGQPEPENNYRTTPPQLDSDGTYFVYSKLSVDRSHWQRGNTYTCSVSHEALHSHHTQKSLTQSPG
light: EIQMTQSPTSLSASVGDRVTITCRASEGIANNLSWYQQTPGKAPKLLIYATSNLHSGVPSRFSGSGSGTDFTLTISSLQPEDFATYYCQQGFKWPLTFGGGTKLEITRSDAQPSVFLFQPSLDELHTGSASIVCILNDFYPKEVNVKWKVDGVVQNKGIQESTTEQNSKDSTYSLSSTLTMSSTEYQSHEKFSCEVTHKSLASTLVKSFNRSECQRE
notes: IgG1a constant domain with MALA mutations (M234A, L244A as printed); variable domains from WO 2023/97275
B4: IgG with feline IgG1a Fc variant S252M, I377L (antibody)
heavy: DVQLVESGGDLVKPGGSLRLTCVASGLSLTSDSMSWVRQAPGKGLQWVSTLWSNRGTYYTDSVKGRFTISKDNAENTLYLQMNNLKTEDTATYYCASIYYYEADYLHWYFDFWGQGALVTVSSASTTAPSVFPLAPSCGTTSGATVALACLVLGYFPEPVTVSWNSGALTSGVHTFPAVLQASGLYSLSSMVTVPSSRWLSDTFTCNVAHPPSNTKVDKTVRKTDHPPGPKPCDCPKCPPPEAAGGPSIFIFPPKPKDTLMISRTPEVTCLVVDLGPDDSDVQITWFVDNTQVYTAKTSPREEQFNSTYRVVSVLPILHQDWLKGKEFKCKVNSKSLPSPIERTISKAKGQPHEPQVYVLPPAQEELSRNKVSVTCLIKSFHPPDLAVEWEITGQPEPENNYRTTPPQLDSDGTYFVYSKLSVDRSHWQRGNTYTCSVSHEALHSHHTQKSLTQSPG
light: EIQMTQSPTSLSASVGDRVTITCRASEGIANNLSWYQQTPGKAPKLLIYATSNLHSGVPSRFSGSGSGTDFTLTISSLQPEDFATYYCQQGFKWPLTFGGGTKLEITRSDAQPSVFLFQPSLDELHTGSASIVCILNDFYPKEVNVKWKVDGVVQNKGIQESTTEQNSKDSTYSLSSTLTMSSTEYQSHEKFSCEVTHKSLASTLVKSFNRSECQRE
notes: Printed '1377L' read as I377L; IgG1a constant domain with MALA mutations (M234A, L244A as printed); variable domains from WO 2023/97275; also called S252M, 1377L
B5: IgG with feline IgG1a Fc variant S252M, L309D (antibody)
heavy: DVQLVESGGDLVKPGGSLRLTCVASGLSLTSDSMSWVRQAPGKGLQWVSTLWSNRGTYYTDSVKGRFTISKDNAENTLYLQMNNLKTEDTATYYCASIYYYEADYLHWYFDFWGQGALVTVSSASTTAPSVFPLAPSCGTTSGATVALACLVLGYFPEPVTVSWNSGALTSGVHTFPAVLQASGLYSLSSMVTVPSSRWLSDTFTCNVAHPPSNTKVDKTVRKTDHPPGPKPCDCPKCPPPEAAGGPSIFIFPPKPKDTLMISRTPEVTCLVVDLGPDDSDVQITWFVDNTQVYTAKTSPREEQFNSTYRVVSVLPIDHQDWLKGKEFKCKVNSKSLPSPIERTISKAKGQPHEPQVYVLPPAQEELSRNKVSVTCLIKSFHPPDIAVEWEITGQPEPENNYRTTPPQLDSDGTYFVYSKLSVDRSHWQRGNTYTCSVSHEALHSHHTQKSLTQSPG
light: EIQMTQSPTSLSASVGDRVTITCRASEGIANNLSWYQQTPGKAPKLLIYATSNLHSGVPSRFSGSGSGTDFTLTISSLQPEDFATYYCQQGFKWPLTFGGGTKLEITRSDAQPSVFLFQPSLDELHTGSASIVCILNDFYPKEVNVKWKVDGVVQNKGIQESTTEQNSKDSTYSLSSTLTMSSTEYQSHEKFSCEVTHKSLASTLVKSFNRSECQRE
notes: as for B3
B6: IgG with feline IgG1a Fc variant S252M (antibody)
heavy: DVQLVESGGDLVKPGGSLRLTCVASGLSLTSDSMSWVRQAPGKGLQWVSTLWSNRGTYYTDSVKGRFTISKDNAENTLYLQMNNLKTEDTATYYCASIYYYEADYLHWYFDFWGQGALVTVSSASTTAPSVFPLAPSCGTTSGATVALACLVLGYFPEPVTVSWNSGALTSGVHTFPAVLQASGLYSLSSMVTVPSSRWLSDTFTCNVAHPPSNTKVDKTVRKTDHPPGPKPCDCPKCPPPEAAGGPSIFIFPPKPKDTLMISRTPEVTCLVVDLGPDDSDVQITWFVDNTQVYTAKTSPREEQFNSTYRVVSVLPILHQDWLKGKEFKCKVNSKSLPSPIERTISKAKGQPHEPQVYVLPPAQEELSRNKVSVTCLIKSFHPPDIAVEWEITGQPEPENNYRTTPPQLDSDGTYFVYSKLSVDRSHWQRGNTYTCSVSHEALHSHHTQKSLTQSPG
light: EIQMTQSPTSLSASVGDRVTITCRASEGIANNLSWYQQTPGKAPKLLIYATSNLHSGVPSRFSGSGSGTDFTLTISSLQPEDFATYYCQQGFKWPLTFGGGTKLEITRSDAQPSVFLFQPSLDELHTGSASIVCILNDFYPKEVNVKWKVDGVVQNKGIQESTTEQNSKDSTYSLSSTLTMSSTEYQSHEKFSCEVTHKSLASTLVKSFNRSECQRE
notes: as for B3

This test deals with T1, feline FcRn (soluble portion of large subunit p51 isoform X1 with C-terminal 6xHis-tag, co-expressed with … (feline, UniProt Q5MGS7 21-118)).
T1 construct: Heterodimer made by co-expression in CHO cells, purified on HisTrap FF; also called FcRn complex
T1 sequence (chain, as listed by the source limits assumed, chain 1 of 2): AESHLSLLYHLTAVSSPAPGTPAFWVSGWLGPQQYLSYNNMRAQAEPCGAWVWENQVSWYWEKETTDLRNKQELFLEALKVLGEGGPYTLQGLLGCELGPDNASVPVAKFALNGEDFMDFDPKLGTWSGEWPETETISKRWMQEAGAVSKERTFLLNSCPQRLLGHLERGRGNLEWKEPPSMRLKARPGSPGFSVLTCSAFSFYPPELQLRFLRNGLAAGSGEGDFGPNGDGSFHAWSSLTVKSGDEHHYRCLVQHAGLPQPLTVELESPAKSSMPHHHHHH
T1 sequence (Q5MGS7 other isoform, or with tags, fused parts or gaps limits assumed, chain 2 of 2): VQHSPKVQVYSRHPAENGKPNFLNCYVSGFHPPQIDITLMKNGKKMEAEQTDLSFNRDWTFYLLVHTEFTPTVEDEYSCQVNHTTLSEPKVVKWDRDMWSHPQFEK
Nature of the test: SPR, Biacore T200, IgG captured on Protein L chip, feline FcRn flowed over, pH 5.9, 1:1 fit. Here is the method:
The feline FcRn binding experiments at pH 5.9 were completed on a BIACORE™ T200 instrument. A Series S Protein L Sensor chip (Cytiva, Cat. No. BR29205137) was used to capture the antibody variants via the kappa (κ) light chain. The feline variants were captured onto the protein L chip at a flow rate of 10 μL/min for 60 seconds. 1×PBX-P+(Cytiva Cat 28995084) was adjusted to pH 5.9 for the running buffer. The feline FcRn was flowed over the sensor chip at 30 μL/min for 120 seconds contact time and 600 seconds dissociation time. Regeneration of the flow cells was completed by flowing over 10 mM glycine, pH 1.7 at 30 μL/min for 30 seconds. The data were evaluated by the BIACORE™T200 Evaluation software v3.2.1 by fitting to a 1:1 kinetic interaction model.
(In general: In SPR one partner is held on a chip, and binding of the other changes the refractive index at the surface.)
Broadly, the Kd is the equilibrium constant for the complex coming apart. Low values mean tighter binding, high ones weaker binding. In general, koff refers to a measure of how fast the partners let go of each other. A high value points to a short-lived complex. By kon is commonly meant a measure of how fast the partners come together. B1 came in with a Kd of 0.417 µM, a koff of 0.273 s⁻¹ and a kon of 709000 M⁻¹ s⁻¹.

The molecule B2 showed a Kd of 0.202 µM, a koff of 0.175 s⁻¹ and a kon of 862000 M⁻¹ s⁻¹.

On to B3, for which the Kd stood at 0.129 µM, the koff was 0.124 s⁻¹ and the kon is 958000 M⁻¹ s⁻¹.

B4: the Kd was determined as 0.216 µM, the koff turned out to be 0.187 s⁻¹ and the kon was found to be 869000 M⁻¹ s⁻¹.

As for B5, the affinity, expressed as Kd, was 0.352 µM; the koff was determined as 0.203 s⁻¹; the kon amounted to 581000 M⁻¹ s⁻¹.

The molecule B6 displayed a Kd of 0.279 µM, a koff of 0.192 s⁻¹ and a kon of 690000 M⁻¹ s⁻¹.
